Values of other authors as cited in article PMC7114193.

Target: ACE2 (Homo sapiens) (UniProt Q9BYF1)
Sequence (Q9BYF1 18-740): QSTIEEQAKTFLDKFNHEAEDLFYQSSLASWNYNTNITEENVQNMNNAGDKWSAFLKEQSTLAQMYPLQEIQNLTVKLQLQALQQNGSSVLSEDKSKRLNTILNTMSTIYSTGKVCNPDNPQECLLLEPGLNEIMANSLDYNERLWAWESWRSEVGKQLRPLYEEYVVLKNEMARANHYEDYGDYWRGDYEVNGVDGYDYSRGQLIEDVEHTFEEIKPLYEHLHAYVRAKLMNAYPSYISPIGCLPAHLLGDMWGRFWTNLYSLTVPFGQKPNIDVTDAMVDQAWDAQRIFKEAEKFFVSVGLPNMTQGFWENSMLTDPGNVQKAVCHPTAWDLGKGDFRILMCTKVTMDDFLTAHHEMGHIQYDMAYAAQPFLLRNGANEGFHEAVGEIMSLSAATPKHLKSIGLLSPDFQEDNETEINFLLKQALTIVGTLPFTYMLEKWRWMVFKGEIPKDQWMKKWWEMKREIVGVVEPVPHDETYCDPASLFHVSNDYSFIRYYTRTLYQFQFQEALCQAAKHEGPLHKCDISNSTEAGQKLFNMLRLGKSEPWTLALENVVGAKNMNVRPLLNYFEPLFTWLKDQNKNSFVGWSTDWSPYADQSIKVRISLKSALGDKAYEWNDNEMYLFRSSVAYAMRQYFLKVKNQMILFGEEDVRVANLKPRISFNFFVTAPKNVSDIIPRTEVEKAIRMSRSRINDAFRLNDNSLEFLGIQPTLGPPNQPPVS

In the case of RBD-Fc 318-510 (from UniProt P59594), the Kd is given as 0.01 µM.
